Laboratory results published in patent publication US9023987B2, “Cell-permeable peptide” (Seoul National University R&DB Foundation, priority 2010, dated 2015).

How the values were obtained:
[1] = system: human mesenchymal stem cells (hMSC); test: Cytotoxicity / cell proliferation by quantitative BrdU assay; assay type: cell-based; set-up: dose or concentration left out as unconfirmed; settings: 24, 48, and 72 hours, FIG. 6
Experimental: In order to confirm whether or not cell proliferation is affected by potential toxicity when the cell permeable peptide-bone differentiation inducing sequence conjugate and control domains are cultured with hMSC, a degree of cell proliferation was analysis by ELISA using BrdU. Since BrdU was introduced in chromosome instead of deoxy thymidine triphosphate (dTTP) at the time of DNA replication during a proliferation process of hMSC, a degree of introduction of BrdU may reflect a degree of proliferation of hMSC.
First, After 1×10^3 human Mesenchymal Stem cells (hMSC) were plated into each well of 96-well plate, the degree of introduction of BrdU, that is, the degree of proliferation of hMSC was measured using a cell proliferation ELISA kit (BrdU (colorimetry); Boehringermanheim, Germany). Simply describing this method, the cells were treated with the cell permeable peptide-bone differentiation inducing sequence conjugate synthesized by the method in Example 1 and the domains of Example 2 at a concentration of […] and cultured in medium for forming hard tissue for 24, 48, and 72 hours. […] of BrdU (5-bromo-2′-deoxyuridine) was added to each of the groups before 24 hours of each culture time and further cultured for 24 hours. […] The reaction was terminated by 1N H2SO4, and then absorbance was measured using the ELISA reader (Bio-Tek, USA) at 450 nm.

[2] = system: human mesenchymal stem cells (hMSC); test: Cell permeability by flow cytometry; assay type: cell-based; set-up: dose or concentration left out as unconfirmed; settings: FITC-labeled, relative to bone differentiation inducing sequence, FIG. 3B
Experimental: The domains synthesized in Example 1 and Comparative Examples 1 and 2 were labeled with a fluorescent material in order to measure cell permeability. 10 equivalents of fluorescein isothiocyanate (FITC) was bound to N-terminals of the synthesized domains by using triethylamine (1 ml per 1 g of resin). The synthesis of the peptide was confirmed by measuring the molecular weight thereof through MALDI-TOF.
In order to quantitatively confirm the cell permeability and cell permeation degree of fluorescence labeled magnetic nanoparticle conjugates, after 1×10^5 human mesenchymal stem cells (hMSC) were plated in each well of 6-well plate, the cells were cultured in a general medium for 20 hours (overnight incubation). […] fluorescence labeled cell permeable peptide-bone differentiation inducing sequence conjugate and […] fluorescence labeled bone differentiation inducing sequence that were obtained by binding FITC (SIGMA, USA) N-terminals of the cell permeable peptide-bone differentiation inducing sequence conjugate synthesized by the method in Example 1 and the domain in Comparative Example 2 to synthesize the fluorescence label conjugate and fluorescence label domain, followed by isolation and purification, were injected into each well and washed with the phosphate buffer solution (PBS) two times after 20, 40, 60, and 80 minutes of injection. […]

[3] = molecular target: T1, human-derived Smurf1 protein (Homo sapiens, UniProt Q9HCE7); test: Slot-blot assay of binding to Smurf1
T1 construct: purchased Origene Technologies (Rockville, Md., USA)
T1 sequence (Q9HCE7 whole entry): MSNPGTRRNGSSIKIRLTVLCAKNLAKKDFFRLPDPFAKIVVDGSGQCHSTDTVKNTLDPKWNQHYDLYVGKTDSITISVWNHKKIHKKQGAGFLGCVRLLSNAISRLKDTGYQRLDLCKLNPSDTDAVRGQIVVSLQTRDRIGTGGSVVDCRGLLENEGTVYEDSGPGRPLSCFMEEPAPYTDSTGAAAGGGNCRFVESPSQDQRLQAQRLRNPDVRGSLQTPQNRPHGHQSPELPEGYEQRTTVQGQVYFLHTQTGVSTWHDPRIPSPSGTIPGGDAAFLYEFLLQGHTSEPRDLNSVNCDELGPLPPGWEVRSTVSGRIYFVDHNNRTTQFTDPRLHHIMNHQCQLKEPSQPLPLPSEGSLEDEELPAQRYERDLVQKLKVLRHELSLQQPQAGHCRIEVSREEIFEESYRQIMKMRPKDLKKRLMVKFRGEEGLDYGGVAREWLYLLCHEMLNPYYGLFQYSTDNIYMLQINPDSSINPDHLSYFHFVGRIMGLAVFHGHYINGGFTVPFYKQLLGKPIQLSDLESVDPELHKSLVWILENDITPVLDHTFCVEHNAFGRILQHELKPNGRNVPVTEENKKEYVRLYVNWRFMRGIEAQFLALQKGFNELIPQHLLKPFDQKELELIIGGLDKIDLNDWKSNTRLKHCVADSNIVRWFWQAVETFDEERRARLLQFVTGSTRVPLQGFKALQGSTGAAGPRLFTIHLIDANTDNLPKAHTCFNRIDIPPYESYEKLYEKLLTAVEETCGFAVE
Source text: In order to confirm presence or absence of the active site of the cell permeable peptide-bone differentiation inducing sequence conjugate synthesized by the method in Example 1 for binding to Smurf1 and binding degrees according to the concentration, a slot blot assay were used. This experimental method is a molecular biological method of positioning a protein on a membrane and sucking the protein in the other side to strongly attach the protein on a surface of the membrane, directly positioning a material to be confirm an interaction with the attached protein and culturing for a predetermine time to induce the binding, and blotting them using antibodies to confirm the interaction (affinity) between the protein and the material through a difference of each Dot.
1 μg of human-derived Smurf1 protein was input […] per well using a slot blot device (Hoefer, Pharmacia Biotech, USA) and blotted on a predetermined position on a nitrocellulose membrane (2 μm, Pall, USA) in a vacuum state. After blotting, the nitrocellulose membrane was blocked with phosphate buffer solution containing 0.5% Tween® 20 at room temperature for 30 minutes, and then completely dried. […]

NH2-GAPPPADSAP-SSRKKNPNCRRH-C-COONH2 (H-GAPPPADSAPSSRKKNPNCRRHC-NH2; cysteine pairing not given here) [Example 1]
effect on cell proliferation (BrdU, DNA synthesis ability compared with PBS) [1]: did not affect the cell proliferation | relative increase of fluorescence intensity (flow cytometry) [2]: ≥ 10 times | concentration at which an increase of dot size began ([3]; 0.1, 1, 10, and 100 mM, 4° C., 20 hours, FIG. 2D): 10 mM | binding to Smurf1 protein detected as dot ([3]; biotinylated domains, slot blot, FIG. 2C): a dot was confirmed
